T1: human TL1A (human, UniProt O95150 72-251, limits assumed)
T1 sequence (looked up): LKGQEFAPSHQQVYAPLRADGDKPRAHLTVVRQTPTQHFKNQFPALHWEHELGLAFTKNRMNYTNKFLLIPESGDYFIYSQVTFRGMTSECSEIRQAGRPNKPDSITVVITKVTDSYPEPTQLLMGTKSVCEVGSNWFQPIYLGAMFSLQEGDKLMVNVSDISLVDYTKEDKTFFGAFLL

T2: human TL1A (human, UniProt O95150 72-251, limits assumed)
T2 construct: also called huTL1A; TNFSF15
T2 sequence (looked up): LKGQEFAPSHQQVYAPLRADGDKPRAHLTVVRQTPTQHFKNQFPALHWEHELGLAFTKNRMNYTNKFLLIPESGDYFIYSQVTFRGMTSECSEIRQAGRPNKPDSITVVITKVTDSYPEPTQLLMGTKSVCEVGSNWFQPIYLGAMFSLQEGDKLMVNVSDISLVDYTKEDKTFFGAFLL


target: T1, human TL1A; assay: cell-based or functional assay

| NF-kB IC50 nM, huTL1A (0.2 nM) [nM] | Binder |
| --- | --- |
| 0.131 | anti-TL1A mAb 9C8 (antibody, human IgG1, kappa, N297G, V domains shown, also called PL-39116; iPS 285412) VH: QVQLQESGPGLVKPSETLSLTCTVSGGSISSYFWSWIRQPPGKGLEWIGYIYYSGNTKYNPSLKSRVTISIDTSKNQFSLKLSSVTAADTAVYYCARETGSYYGFDYWGQGTLVTVSS VL: DIQMTQSPSSLSASVGDRVTITCRASQSINNYLNWYQQRPGKAPKLLIYAASSLQSGVPSRFSGSGSGTDFTLTISSLQPGDFATYYCQQSYSTPRTFGQGTKLEIKR |
| 2.43 | anti-TL1A Fab 9C8 (Fab, V domains shown, Fab fragment; the Fab's constant parts are not; also called 9C8 Fab; PL-39197) VH: QVQLQESGPGLVKPSETLSLTCTVSGGSISSYFWSWIRQPPGKGLEWIGYIYYSGNTKYNPSLKSRVTISIDTSKNQFSLKLSSVTAADTAVYYCARETGSYYGFDYWGQGTLVTVSS VL: DIQMTQSPSSLSASVGDRVTITCRASQSINNYLNWYQQRPGKAPKLLIYAASSLQSGVPSRFSGSGSGTDFTLTISSLQPGDFATYYCQQSYSTPRTFGQGTKLEIK |
| 0.223 | anti-TL1A mAb 2G11 (antibody, human IgG1, kappa, N297G, V domains shown, also called iPS 285396) VH: QVQLQESGPGLVKPSETLSLTCTVSGGSISSYFWSWIRQPPGKGLEWIGYIYYSGSTNYNPSLKSRVTMSIDTSKNQFSLKLSSVTAADTAVYYCAREIGSYYGFDYWGQGALVTVSS VL: DIQMTQSPSSLSASVGDRVTITCRASQSINNYLNWYQQKPGIAPKLLIYATSSLQSGVPSRFSGSGSGTDFSLTISSLQPEDFATYFCQQSYSTPRTFGQGTKVEIKR |

target: T1, human TL1A; assay: SPR, Fab captured on anti-huFab chip, TL1A injected, 1:1 model
Procedure: (§1) On rate, off rate and equilibrium dissociation constant were calculated using 1:1 binding model on BIAevaluation software.

| Kd [nM] | Binder |
| --- | --- |
| < 0.1 | anti-TL1A Fab 9C8 (Fab, V domains shown, Fab fragment; the Fab's constant parts are not; also called 9C8 Fab; PL-39197) VH: QVQLQESGPGLVKPSETLSLTCTVSGGSISSYFWSWIRQPPGKGLEWIGYIYYSGNTKYNPSLKSRVTISIDTSKNQFSLKLSSVTAADTAVYYCARETGSYYGFDYWGQGTLVTVSS VL: DIQMTQSPSSLSASVGDRVTITCRASQSINNYLNWYQQRPGKAPKLLIYAASSLQSGVPSRFSGSGSGTDFTLTISSLQPGDFATYYCQQSYSTPRTFGQGTKLEIK |

target: T1, human TL1A; assay: SPR, mAb captured on anti-human Fc chip, TL1A injected, 1:1 model
Procedure: as §1

| Kd [nM] | Binder |
| --- | --- |
| 0.34 | anti-TL1A mAb 9C8 (antibody, human IgG1, kappa, N297G, V domains shown, also called PL-39116; iPS 285412) VH: QVQLQESGPGLVKPSETLSLTCTVSGGSISSYFWSWIRQPPGKGLEWIGYIYYSGNTKYNPSLKSRVTISIDTSKNQFSLKLSSVTAADTAVYYCARETGSYYGFDYWGQGTLVTVSS VL: DIQMTQSPSSLSASVGDRVTITCRASQSINNYLNWYQQRPGKAPKLLIYAASSLQSGVPSRFSGSGSGTDFTLTISSLQPGDFATYYCQQSYSTPRTFGQGTKLEIKR |
| 1.1 | anti-TL1A mAb 2G11 (antibody, human IgG1, kappa, N297G, V domains shown, also called iPS 285396) VH: QVQLQESGPGLVKPSETLSLTCTVSGGSISSYFWSWIRQPPGKGLEWIGYIYYSGSTNYNPSLKSRVTMSIDTSKNQFSLKLSSVTAADTAVYYCAREIGSYYGFDYWGQGALVTVSS VL: DIQMTQSPSSLSASVGDRVTITCRASQSINNYLNWYQQKPGIAPKLLIYATSSLQSGVPSRFSGSGSGTDFSLTISSLQPEDFATYFCQQSYSTPRTFGQGTKVEIKR |

target: T2, human TL1A; assay: hybridoma screening after immunisation with recombinant human TL1A soluble protein; member named through Tables A, C and D

| Binder | binding result |
| --- | --- |
| 76A4 (antibody, human IgG2, kappa, V domains shown, also called iPS 427529) VH: QVQLQQSGPGLVKPSQTLSLTCAISGDSVSSNSATWNWIRQSPSRGLEWLGRTYYRSKLYNDYAVSVKSRITINPDTSKNQFSLQLNSVTPEDTAVYYCAREVVAGPRWFDPWGQGTLVTVSS VL: DIQMTQSPSSLSASVGDRVTITCRASQSVTSYLNWYQQKPGKAPKLLIYTASSLQSGIPSRFSGSGSGTDFTLTISSLQPEDFATYFCQQSYSTPRSFGQGTKLEIKR | binds |
| 73C2 (antibody, human IgG2, kappa, V domains shown, also called iPS 427544) VH: QVQLQQSGPGLVKPSQTLSLTCAISGDSVSSSSATWNWIRQSPSRGLEWLGRTYQRSKWNNDYAVSVKSRITINPDTSRNQFSLQLNSVTPEDTAVYYCAREVVAGPRWFDPWGQGTLVTVSS VL: DIQMTQSPSSLSASVGDRVTITCRASQSFSSYLNWYQQKPGKAPELLIYAASSLQSGVPSRFSGSGSGTDFTLTISSLQPEDFASYFCQQSYSTPRSFGQGTKLEIKR | binds |
| 54E5 (antibody, human IgG2, kappa, V domains shown, also called iPS 427576) VH: QVQLVESGGGVVQPGRSLRLSCAASGFTFSTYGMHWVRQAPGKGLEWVAVIWYDGSNKDYADSVKGRFTVSRDNSRDTLYLQMNSLRAEDTAVYYCAREERDSYYHYGMDVWGQGTTVTVSS VL: not shown | binds |
| 53D3 (antibody, human IgG2, kappa, V domains shown, also called iPS 427504) VH: EVQLVESGGGLVKPGGSLRLSCAASEFTFSTYYMSWVRQAPGKGLEWVSSISSSSSFIYYADSVKGRFTISRDNAKNSLYLQMNSLRAEDTAVYYCARDRIAAPGTYYYYGMDVWGQGTTVTVSS VL: not shown | binds |
| 57A8 (antibody, V domains shown, also called iPS 427519) VH: EIQLLESGGGLVQPGGSLRLSCVASGFTFSSYVMSWVRQAPGKGLEWVSVISGSGGSTYYADSVKGRFTISRDNSKTTLYLQMNSLRAEDTAVYYCAKGGTNYYYYYSGMDVWGQGTTVTVSS VL: QSVLTQPPSVSGAPGQRVTISCTGSSSNIGAGYNVHWYQQLPGTAPKLLIYGNNNRPSGVPDRFSGSKSGTSASLAITGLQTEDEADYYCQSYDSSLSGWVFGGGTKLTVL | binds |
| 92D3 (antibody, human IgG2, kappa, V domains shown, also called iPS 427564) VH: QVQLVQSGAEVKKPGASVQVSCKASGYTFTGYYMHWIRQAPGQGLEWLGWIIPNSGGTNYAQKFQGRVTMTRDTSISTAYMELSRLRSDDTAVYYCATGSSWEGFDYWGQGTLVTVSS VL: DIQMTQSPSSLSASVGDRVTITCRASQSISSYLNWYQQKPGTAPKFLIYGASRLQSGVPSRFSGSGSGTDFTLTISSLQPEDFATYYCQQSDTTPITFGQGTRLEIKR | binds |
| 92E5 (antibody, human IgG2, kappa, V domains shown, also called iPS 427559) VH: EVHLLESGGGLVQPGGSLRLSCAASGFTFSSYAMSWVRQVPGKGLEWVSGISGRGGSTYYADSVKGRFTISRDNSKNTLYLQMDSLRAEDTAVYNCAIEVAGAFDIWGQGTMVTVSS VL: DIQMIQSPSSLSASVGDRVTITCRASQSISHYLNWYQQKPGKAPKFLIYAASSLQSGVPSRFSGSGSGTDFTLTISSLQPEDFATYYCQQSFSSITFGQGTRLEIKR | binds |
| 89H9 (antibody, human IgG2, kappa, V domains shown, also called iPS 427509) VH: EVHLLESGGGLVQPGGSLRLSCAASGFTFSSYAMSWVRQAPGKGLEWVSGISGGGGSTYYADSVKGRFTISRDNSKNTLYLQMNSLRAENTAVYYCAIEMAGAFDIWGQGTMVTVSS VL: DIQMIQSPSSLSASVGDSVTITCRASQSISYYLNWYQQKPGKAPKFLIYAASSLQSGVPSRFSGSGSGTDFTLTISSLQPEDFATYYCQQSYSSITFGQGTRLEIKR | binds |
| 23B3 VH3 (antibody, human IgG1, kappa, N297G, V domains shown, also called 23B3 HC3; iPS 325336) VH: EVQLLESGGGLVQPGGSLRLSCAISGDSVSTNSVAWNWIRQAPGKGLEWVSRTYYRSKWYNDYAVSVKGRFTISPDTSKNTFYLQMNSLRAEDTAVYYCAREDGDSYYRYGMDVWGQGTTVTVSS VL: DIQMTQSPSSLSASVGDRVTITCRSSQSVLYSSNNKNYLVWYQQKPGKVPKLLIYWASTRESGVPSRFSGSGSGTDFTLTISSLQPEDFATYYCQQYYKTPLTFGGGTKVEIKR | binds |
| 60G11 (antibody, human IgG2, lambda, V domains shown, also called iPS 427493) VL: QSVLTQPPSVSGAPGQRVTISCTGSGSNIGAGYDVHWYQQLPGTAPKLLIYGNSHRPSGIPDRFSGSKSGTSASLAITGLQAEDEADYYCQSYDSSLSGYVFGTGTKVTVLG V domain: EVQLLESGGGLVQPGGSLRLSCAASGFTFSNYAMNWVRQAPGKGLEWVSVISGRGGSTYYADSVKGRFTISRDNSRNTLYLQMNSLRAEDTAIYYCAKDGYSSAWFFDYWGQGTLITVSS | binds |

Continued, values first:

| binding result | Binder |
| --- | --- |
| binds | 56E1 (antibody, human IgG2, kappa, V domains shown, also called iPS 427554) VH: QVQLVESGGGVVQPGRSLRLSCAASGFIFSSYGMHWVRQAPGKGLEWVAVIWYDGSNKDYADSVKGRFTVSRDNSRDTLYLQMNSLRAEDTAVYYCAREERDSYYHYGMDVWGQGTTVTVSS VL: not shown |
| binds | 91D7 (antibody, human IgG2, kappa, V domains shown, also called iPS 427514) VH: QVQLQQWGAGLLKPSETLSLTCAVYGGSFSGYYWSWIRQPPGKGLEWIGEINPVGRTNYKPSLKSRVTISVDTSKNQFSLKLSSVTAADTALYYCARDNGWHYAFDIWGQGTMVTVSS VL: DIQMTQSPSSLSASVGDRVTITCRASQNISSYLNWYQQRPGKAPNLLLFTASSLQSGVPSRFSGSGSGTDFTLTINSLQPEDFATYYCQQSYSNPPESSFGQGTKLEIKR |
| binds | 87H11 (antibody, human IgG2, kappa, V domains shown, also called iPS 427534) VH: QEQLQQWGAGLLKPSETLSLTCAVYGGSFSGYYWSWIRQPPGKGLEWIGEINHSGRTNYNPSLKSRVTISVDTSKNQFSLKLSSVTAADTAVYYCARDSGWHFSFDIWDQGTMVTVSS VL: not shown |
| binds | 88H9 (antibody, human IgG2, kappa, V domains shown, also called iPS 427485) VH: QVQLVESGAGVVQPGRSLRLSCAASGFTFSSYGMHWVRQAPGMGLEWVAVIWFDGSNEYYADSVKGRFTISRDNSKNTLYLQMNSLRAEDTAVYYCARERWFGELLDYWGQGTLVTVSS VL: DIQMTQSPSSLSASVGDRVTITCRASQGIRNDLGWYQEKPGKAPKRLIYAASGLQGGDPSRFSGSGSGTEFTLTISSLQPEDFATYYCLQHNSYPTWTFGQGTKVEIKR |
| binds | 77D12 (antibody, human IgG2, lambda, V domains shown, also called iPS 427549) VH: QVQLVQSGAEVKKPGASVRVSCKASGYTFTGFYMHWVRQAPGQGLEWMGWINPDSGGTNYAQKFQGRVTMTRDTSISTAYMELSRLRSDDTAVYYCAREGIAVALTYWGQGTLVTVSS VL: QSVLTQPPSASGTPGQRVTISCSESNSDIGTNAVNWYQQFPGTAPKFLIYSNNKRPSGVPDRFSGSKSGTSASLAISGLQSEDEADYYCATWDDNLNGPLFGGGTKLTVLG |
| binds | 91F10_LC2 (antibody, human IgG2, kappa, V domains shown, also called iPS 427572) VH: QGQLVQSGAEVKKPGASVKVSCQASGYTFTAYYMHWVRQAPGQGLEWMGWINPNSGGTNYAQKFRGRVTMTRDTSISTAYMELSRLRSDDTAVYYCATGGSWEGFDYWGQGTLVTVSS VL: DIQMTQSPSSLSASVGDRVTITCRASQSISSYLNWYQQKPGKAPKFLIYAASRLQSGVPSRFSGSGSGTDFTLTISSLQPEDFATYYCQQSDSTPITFGQGTRLEIKR |
| binds | 91G8 (antibody, human IgG2, kappa, V domains shown, also called iPS 427524) VH: EVQLLESGGGLVQPGGSLRLSCVASGFTFSSYAMSWVRQAPGKGLEWVSGISGSGGSRYYADSVKGRFTISRDNSKNTLYLQMNSLRAEDTAVYYCAIEVAGAFDIWGQGTMVTVSS VL: DIQMIQSPSSLSASVGDRVTITCRASQSISSYLNWYQQKPGKAPKFLIYAASSLQSGVPSRFSGSGSGTDFTLTISSLQPEDFATYYCQQSFSTITFGQGTRLEIKR |
| binds | 58G5 (antibody, human IgG2, lambda, V domains shown, also called iPS 427539) VH: EVQLLESGGGLVQPGGSLRLSCAASGFTFSNYAMSWVRQAPGKGLQWVSVISGRGGSTYYADSVKGRFTISRDNSKNTLYLQMNSLRAEDTAVYYCAKDGYSSAWYFDYWGQGTLVTVSS VL: QSVLTQPPSVSGAPGQRVTISCTGSSSNIGAGYDVHWYQQLPGTAPKLLIYGNSHRPSGVPDRFSGSKSGTSASLAITGLQAEDEADYYCQSYDSSLSGYVFGTGTKVTVLG |

Source: US20190119407A1 (Amgen, published 2019)
